Source: US20170298096A1 (CANIMGUIDE THERAPEUTICS, published 2017)
No end group written: not given here.

Biological target: T1, His-tagged P3028 (human, not fully specified)
T1 construct: the tag is put first after 'PGE73=His-tag-P3028'; also called PGE73; not shown: His-tag
T1 peptide: {His‑tag}-VFDEFKPLVEEPQNLIK
Assay: chip ELISA

In order of rising ELISA signal:
1. KKLDTFFVKESLFTER [P28R L10E]  81
2. KKLDTFFVKLSEFTER [P28R L12E]  82
3. KKLDTFFVKLSDFTER [P28R L12D]  89
4. KKLDTFFVKDSLFTER [P28R L10D]  102
5. KKLDTFFVKLSLFTEE [P28R R16E]  107
6. KKLDTFFVKLSLFTED [P28R R16D]  133
7. KKLDTFFVKLSLFTEQ [P28R R16Q]  133
8. KKLDTFFVKLSLFTEI [P28R R16I]  176
9. KKLDTFFVKLSLFTES [P28R R16S]  184
10. KKLDTFFVYLSLFTER [P28R K9Y]  198
11. KKLDTFFVKLSLFTEW [P28R R16W]  202
12. KKLDTFFVKLSLFTEL [P28R R16L]  217
13. KKLDTFFVKLSLFTEA [P28R R16A]  226
14. KKLDTFFVKLSLFTEM [P28R R16M]  238
15. KKLDTFFVKLSLFTEH [P28R R16H]  239
16. KKLDTFFVWLSLFTER [P28R K9W]  245
17. KKLDTFFVVLSLFTER [P28R K9V]  248
18. KKLDTFFVKLSLFTEV [P28R R16V]  254
19. KKLDTFFVSLSLFTER [P28R K9S]  274
20. KKLDTFFVKKSLFTER [P28R L10K]  285
21. KKLDTFFVKLSLFTEK [P28R R16K]  291
22. KKLDTFFVKLSLFTET [P28R R16T]  292
23. KKLDTFFVKHSLFTER [P28R L10H]  293
24. KKLDTFFVKLSLFTEF [P28R R16F]  297
25. KKLDTFFVKLSLFTEN [P28R R16N]  311
26. KKLDTFFVKLSLFTEY [P28R R16Y]  311
27. KKLDTFFVKWSLFTER [P28R L10W]  316
28. KKLDTFFVKLALFTER [P28R S11A]  318
29. KKLDTFFVKLSYFTER [P28R L12Y]  320
30. KKWDTFFVKLSLFTER [P28R L3W]  341
31. KKYDTFFVKLSLFTER [P28R L3Y]  344
32. KKLDTFFVTLSLFTER [P28R K9T]  347
33. KKLDTFFVKSSLFTER [P28R L10S]  351
34. KKLDTFFVKLSKFTER [P28R L12K]  355
35. KKLDTFFVKNSLFTER [P28R L10N]  365
36. KKRDTFFVKLSLFTER [P28R L3R]  370
37. KKLDTFFVRLSLFTER [P28R K9R]  374
38. KKNDTFFVKLSLFTER [P28R L3N]  374
39. KKVDTFFVKLSLFTER [P28R L3V]  377
40. KKLDTFFVKYSLFTER [P28R L10Y]  382
41. KKKDTFFVKLSLFTER [P28R L3K]  386
42. KKLDTFFVKLSFFTER [P28R L12F]  389
43. KKFDTFFVKLSLFTER [P28R L3F]  393
44. KKSDTFFVKLSLFTER [P28R L3S]  393
45. KKLDTFFVKTSLFTER [P28R L10T]  399
46. KKLDTFFVKFSLFTER [P28R L10F]  403
47. KKLDTFFVKLSWFTER [P28R L12W]  409
48. KKLDTFFVKISLFTER [P28R L10I]  415
49. KKLDTFFVKASLFTER [P28R L10A]  426
50. KKADTFFVKLSLFTER [P28R L3A]  427
51. KKLDTFFVKLSTFTER [P28R L12T]  437
52. KKLDTFFVKRSLFTER [P28R L10R]  439
53. KKTDTFFVKLSLFTER [P28R L3T]  451
54. KKIDTFFVKLSLFTER [P28R L3I]  454
55. KKLDTFFVKLSIFTER [P28R L12I]  456
56. KKMDTFFVKLSLFTER [P28R L3M]  460
57. KKLDTFFVKLSHFTER [P28R L12H]  460
58. KKLDTFFVKMSLFTER [P28R L10M]  460
59. KKLDTFFVKLSNFTER [P28R L12N]  462
60. KKLDTFFVKLSAFTER [P28R L12A]  462
61. KKLDTFFVKQSLFTER [P28R L10Q]  470
62. KKQDTFFVKLSLFTER [P28R L3Q]  473
63. KKHDTFFVKLSLFTER [P28R L3H]  477
64. KKLDTFFVKLSSFTER [P28R L12S]  478
65. KKLDTFFVKLSRFTER [P28R L12R]  483
66. KKDDTFFVKLSLFTER [P28R L3D]  492
67. KKLDTFFVKLSMFTER [P28R L12M]  499
68. KKEDTFFVKLSLFTER [P28R L3E]  528
69. KKLDTFFVKLSVFTER [P28R L12V]  545
70. KKLDTFFVKLSQFTER [P28R L12Q]  651
71. KKLDTFFVKVSLFTER [P28R L10V]  658
